What was measured:
[1] = test system: MDA-MB-231 cells; assay: Cancer cell killing, Calcein AM staining; type: cell-based, human
[2] = test system: CD95; assay: Recombinant CD95 degradation, SDS-PAGE and coomassie blue; type: biochemical, human; conditions: ELANE 0.05 μg, 1 μg recombinant protein, 2 hrs at 37° C.
Protocol: ELANE lowers CD95 levels in cancer cells and reduced CD95 levels are associated with apoptosis. (FIG. 8A) Recombinant proteins (1 μg) corresponding to full length CD95 (FL-CD95), N-terminal domain of CD95 (amino acids 1-173; N-CD95), or C-terminal domain of CD95 (amino acids 157-320; C-CD95) were inbuated with ELANE (0.05 μg) or vehicle (Veh) for 2 hrs at 37° C. Degradation was assessed by SDS-PAGE followed by coomassie blue staining. […] (FIG. 8C) Cancer cells were treated with ELANE (50 nM) for 1 hr, fixed in 10% formalin, and stained with N- or C-terminal specific anti-CD95 antibodies (green). Hoechst 33342 solution was used for nuclear staining (blue). Images were taken under 40×.
ELANE selectively cleaves the C-terminal domain of CD95. […] Degradation was assessed by SDS-PAGE followed by staining with coomassie blue. […] Mel888 cancer cells were treated with ELANE (50 nM) for various times, and CD95 degradation was assessed by western blot analysis with a C-terminal specific anti-CD95 antibody.
Other serine proteases cleave the C-terminal domain of CD95, and the ability to cleave the C-terminal domain is associated with cancer cell killing. […] Degradation was assessed by SDS-PAGE followed by coomassie blue staining. […] Cell viability was assessed by Calcein AM staining.

[3] = test system: human blood Tcells; assay: Apoptosis of human blood T cells in vitro; type: cell-based
Protocol: The efficiency by which these proteases cleaved CD95 was well correlated with their ability to kill cancer cells. Thus, targeting CD95 for degradation offers three important advantages over the FASL and siRNA/shRNA approaches described above. First, unlike the resistance reported with FASL, the inventors have shown that cancer cells are incapable of becoming resistant to this degradative pathway in vitro and in vivo. […] In fact, when tumor bearing mice were treated with ELANE, tumor and splenic T-cells numbers were elevated.

B1: neutrophil elastase (protein, listed as Homo sapiens)
chain: MTLGRRLACLFLACVLPALLLGGTALASEIVGGRRARPHAWPFMVSLQLRGGHFCGATLIAPNFVMSAAHCVANVNVRAVRVVLGAHNLSRREPTRQVFAVQRIFENGYDPVNLLNDIVILQLNGSATINANVQVAQLPAQGRRLGNGVQCLAMGWGLLGRNRGIASVLQELNVTVVTSLCRRSNVCTLVRGRQAGVCFGDSGSPLVCNGLIHGIASFVRGGCASGLYPDAFAPVAQFVNWIDSIIQRSEDNPCPHPRDPDPASRTH
notes: purified native ELANE
**Q.** Which results are given for B1?
**A.** cancer cell killing activity of purified protein ([1]; increasing doses, 5h): highest cancer cell killing activity; toxicity to cancer cells, ELANE versus PPE ([1]; various doses, 6 h): equally toxic to cancer cells; cleavage of CD95 domains [2]: preferentially cleaves the C-terminal domain of CD95; apoptosis of human blood T cells [3]: did not induce apoptosis in vitro

Reference: patent US12564623B2, “Methods and compositions for treating cancer” (The University of Chicago, priority 2017, dated 2026)
